Columns and labels:
Assay type in all cases: biochemical
[1] = Carboxylate reductase activity assay (N7-acetyl-7-aminoheptanoate to N7-acetyl-7-aminoheptanal); details: purified enzyme enhanced by sfp gene product, 2 mM N7-acetyl-7-aminoheptanoate, 1 mM ATP, 1 mM NADPH, pH 7.5, room temperature, 20 min, against empty vector control
Protocol: The activity of each of the N-terminal His-tagged carboxylate reductases of SEQ ID NOs: 3, 6, and 7 (see Example 4, and FIGS. 7B, 7E, and 7F) for converting N7-acetyl-7-aminoheptanoate to N7-acetyl-7-aminoheptanal was assayed in triplicate in a buffer composed of a final concentration of 50 mM HEPES buffer (pH=7.5), 2 mM N7-acetyl-7-aminoheptanoate, 10 mM MgCl2, 1 mM ATP, and 1 mM NADPH. The assays were initiated by adding purified carboxylate reductase and phosphopantetheine transferase or the empty vector control to the assay buffer containing the N7-acetyl-7-aminoheptanoate then incubated at room temperature for 20 min. The consumption of NADPH was monitored by absorbance at 340 nm.

[2] = Carboxylate reductase activity assay (pimelate to pimelate semialdehyde); details: purified enzyme enhanced by sfp gene product, 2 mM pimelate, 1 mM ATP, 1 mM NADPH, pH 7.5, room temperature, 20 min, against empty vector control
Protocol: A sequence encoding a HIS-tag was added to the genes from Segniliparus rugosus and Segniliparus rotundus that encode the carboxylate reductases of SEQ ID NOs: 4 and 7, respectively (see FIGS. 7C and 7F), such that N-terminal HIS tagged carboxylate reductases could be produced. Each of the modified genes was cloned into a pET Duet expression vector along with a sfp gene encoding a HIS-tagged phosphopantetheine transferase from Bacillus subtilis, both under the T7 promoter. Each expression vector was transformed into a BL21[DE3] E. coli host and the resulting recombinant E. coli strains were cultivated at 37° C. in a 250 mL shake flask culture containing 50 mL LB media and antibiotic selection pressure, with shaking at 230 rpm. Each culture was induced overnight at 37° C. using an auto-induction media.
The pellet from each induced shake flask culture was harvested via centrifugation. Each pellet was resuspended and lysed via sonication, and the cell debris was separated from the supernatant via centrifugation. […]
Enzyme activity assays (i.e., from pimelate to pimelate semialdehyde) were performed in triplicate in a buffer composed of a final concentration of 50 mM HEPES buffer (pH=7.5), 2 mM pimelate, 10 mM MgCl2, 1 mM ATP and 1 mM NADPH. […] The consumption of NADPH was monitored by absorbance at 340 nm.

[3] = Carboxylate reductase activity assay (pimelate semialdehyde to heptanedial); details: purified enzyme enhanced by sfp gene product, 2 mM pimelate semialdehyde, 1 mM ATP, 1 mM NADPH, pH 7.5, room temperature, 20 min, against empty vector control
Protocol: The N-terminal His-tagged carboxylate reductase of SEQ ID NO 7 (see Example 4 and FIG. 7F) was assayed using pimelate semialdehyde as substrate. The enzyme activity assay was performed in triplicate in a buffer composed of a final concentration of 50 mM HEPES buffer (pH=7.5), 2 mM pimelate semialdehyde, 10 mM MgCl2, 1 mM ATP and 1 mM NADPH. The enzyme activity assay reaction was initiated by adding purified carboxylate reductase and phosphopantetheine transferase or the empty vector control to the assay buffer containing the pimelate semialdehyde and then incubated at room temperature for 20 min. The consumption of NADPH was monitored by absorbance at 340 nm.

acceptance of pimelate as substrate (consumption of NADPH, absorbance at 340 nm) [2]: accepted pimelate as substrate
B1: SEQ ID NO 7: Segniliparus rotundus carboxylate reductase, Genbank Accession No. ADG98140.1 (protein, listed as Segniliparus rotundus)
chain: MTQSHTQGPQASAAHSRLARRAAELLATDPQAAATLPDPEVVRQATRPGLRLAERVDAILSGYADRPALGQRSFQTVKDPITGRSSVELLPTFDTITYRELRERATAIASDLAHHPQAPAKPGDFLASIGFISVDYVAIDIAGVFAGLTAVPLQTGATLATLTAITAETAPTLFAASIEHLPTAVDAVLATPSVRRLLVFDYRAGSDEDREAVEAAKRKIADAGSSVLVDVLDEVIARGKSAPKAPLPPATDAGDDSLSLLIYTSGSTGTPKGAMYPERNVAHFWGGVWAAAFDEDAAPPVPAINITFLPLSHVASRLSLMPTLARGGLMHFVAKSDLSTLFEDLKLARPTNLFLVPRVVEMLYQHYQSELDRRGVQDGTREAEAVKDDLRTGLLGGRILTAGFGSAPLSAELAGFIESLLQIHLVDGYGSTEAGPVWRDGYLVKPPVTDYKLIDVPELGYFSTDSPHPRGELAIKTQTILPGYYKRPETTAEVFDEDGFYLTGDVVAQIGPEQFAYVDRRKNVLKLSQGEFVTLAKLEAAYSSSPLVRQLFVYGSSERSYLLAVIVPTPDALKKFGVGEAAKAALGESLQKIARDEGLQSYEVPRDFIIETDPFTVENGLLSDARKSLRPKLKEHYGERLEAMYKELADGQANELRDIRRGVQQRPTLETVRRAAAAMLGASAAEIKPDAHFTDLGGDSLSALTFSNFLHDLFEVDVPVGVIVSAANTLGSVAEHIDAQLAGGRARPTFATVHGKGSTTIKASDLTLDKFIDEQTLEAAKHLPKPADPPRTVLLTGANGWLGRFLALEWLERLAPAGGKLITIVRGKDAAQAKARLDAAYESGDPKLAGHYQDLAATTLEVLAGDFSEPRLGLDEATWNRLADEVDFISHPGALVNHVLPYNQLFGPNVAGVAEIIKLAITTRIKPVTYLSTVAVAAGVEPSALDEDGDIRTVSAERSVDEGYANGYGNSKWGGEVLLREAHDRTGLPVRVFRSDMILAHQKYTGQVNATDQFTRLVQSLLATGLAPKSFYELDAQGNRQRAHYDGIPVDFTAESITTLGGDGLEGYRSYNVFNPHRDGVGLDEFVDWLIEAGHPITRIDDYDQWLSRFETSLRGLPESKRQASVLPLLHAFARPGPAVDGSPFRNTVFRTDVQKAKIGAEHDIPHLGKALVLKYADDIKQLGLL
acceptance of N7-acetyl-7-aminoheptanoate as substrate (consumption of NADPH, absorbance at 340 nm) [1]: accepted N7-acetyl-7-aminoheptanoate as substrate | acceptance of pimelate semialdehyde as substrate, forming heptanedial (consumption of NADPH, absorbance at 340 nm) [3]: accepted pimelate semialdehyde as substrate
